From US20160264684A1, “GLYCAN-INTERACTING COMPOUNDS AND METHODS OF USE” (SIAMAB THERAPEUTICS, INC., priority 2013, published 2016)
Several values for one entry are separate records, joined by “and”; a condition that tells them apart may be missing. Equal values may be shown once.

Key:
[1] = Glycan microarray analysis, AcSTn; assay type: binding
Method: (§1) Optimized glycan arrays comprise 71 chemically synthesized and well-defined glycans, most of which comprise Neu5Ac and Neu5Gc glycan pairs.
(§2) 300 ml of epoxy blocking buffer is prepared by combining 15 ml of 2 M Tris buffer (pH 8) with 0.9 ml of 16.6 M ethanolamine and 284.1 ml of distilled water. The solution is filtered using a 0.2 μM nitrocellulose membrane. The epoxy buffer solution as well as 1 L of distilled water are pre-warmed to 50° C. Glass slides are arranged in a slide holder and quickly submerged in a staining tub with the warmed epoxy blocking buffer. Slides are incubated in the epoxy blocking buffer for 1 hour at 50° C. with periodic shaking to deactivate epoxy binding sites. Next, slides are rinsed and blocked with PBS with 1% OVA at 25° C. for one hour. Serum samples are diluted 1:1000 in PBS with 1% OVA and added to the glycan array for one hour at 25° C. After extensive washing, binding of polyclonal serum antibodies are detected by incubating glycan microarray slides with Cy3-conjugated anti-mouse IgG (Jackson Immunoresearch, West Grove, Pa.) for one hour. […]
(§3) 18D2 and 18C7 clones were expanded and binding properties of these hybridomas were determined by glycan microarray analysis according to Example 4. […] No binding to Tn antigen or other glycans was detected.

[2] = Glycan microarray analysis, 9-O-acetylated AcSTn; assay type: binding
Method: as §1, §2, §3

[3] = Glycan array STn specificity and anti-STn antibody group; assay type: binding; design: key to Group: Group 1 antibodies according to the invention are antibodies capable of binding AcSTn and GcSTn; Antibodies were assigned to Group 2 based on their ability to bind STn as well as some related structures that include an O-linkage to serine or threonine; Group 3 antibodies are antibodies capable of binding STn, but may also bind a broader set of related structures; Group 4 antibodies are capable of binding to both AcSTn and GcSTn as well as the un-sialylated Tn antigen
Method: as §1
300 ml of epoxy blocking buffer is prepared by combining 15 ml of 2 M Tris buffer (pH 8) with 0.9 ml of 16.6 M ethanolamine and 284.1 ml of distilled water. The solution is filtered using a […] nitrocellulose membrane. The epoxy buffer solution as well as 1 L of distilled water are pre-warmed to 50° C. Glass slides are arranged in a slide holder and quickly submerged in a staining tub with the warmed epoxy blocking buffer. Slides are incubated in the epoxy blocking buffer for 1 hour at 50° C. with periodic shaking to deactivate epoxy binding sites. Next, slides are rinsed and blocked with PBS with 1% OVA at 25° C. for one hour. Serum samples are diluted 1:1000 in PBS with 1% OVA and added to the glycan array for one hour at 25° C. After extensive washing, binding of polyclonal serum antibodies are detected by incubating glycan microarray slides with Cy3-conjugated anti-mouse IgG (Jackson Immunoresearch, West Grove, Pa.) for one hour. Slides are then washed extensively, dried and scanned with a Genepix 4000B scanner (Laser at 100%; gain at 350; 10 μm pixels). Raw data from scanned images are extracted using the Genepix software and analysis of raw data is carried out.
Based on characterization data, anti-STn antibodies developed from Group 6 and Group 8 mice were categorized by anti-STn group number. In some cases, antibodies were assigned to Group 1. Group 1 antibodies according to the invention are antibodies capable of binding AcSTn and GcSTn. Such antibodies may have the ability to associate with a wider range of STn structures. The large oval in FIG. 1A indicates the portion of STn recognized by Group 1 antibodies. […] Also listed in the Table is the antibody Isotype for each antibody as determined by the IsoStrip mouse monoclonal antibody isotyping kit (Roche Diagnostics GmbH, Manheim, Germany).

[4] = tested on: ST6GalNAc 1 transfected MDA-MB-231 cells; assay: Flow cytometry-based analysis of antibody binding, STn+ cells; assay type: cell-based, human
Method: Flow cytometry-based analysis is carried out to elucidate the curve-dose response for binding of antibodies to cell surface antigens. For these analyses, three cell lines are employed.
MDA-MB-231 cells are human breast cancer cells. They are grown in Earle's Minimum Essential Medium supplemented with 10% fetal calf serum (FCS), 100 μg/ml penicillin, 100 UI/ml streptomycin and 45 μg/ml gentamycin. MCF-7 cells are also human breast cancer cells and are grown under the same conditions as MDA-MB-231 cells. Stably transfected versions of MDA-MB-231 and MCF-7 cells (clone TAH3.P10 for MDA-MB-231 cells and clone A12.1 for MCF-7 cells) that over express GalNAc α2,6-sialyltransferase (ST6GalNAc 1,) are also cultured under the same conditions with the exception of an added 1 mg/ml of G418 to support cells expressing the transgene. ST6GalNAc 1 is an enzyme capable of sialylating GalNAc. […]
For analysis, cells are harvested using StemPro Accutase (Life Technologies, Carlsbad, Calif.) and washed with PBS comprising 5% FBS before pelleting by light centrifugation. Cell numbers and viability are determined by trypan blue dye exclusion analysis and cell concentrations are adjusted to 5×10^6 cells/ml in PBS with 5% FBS. […] Cells are combined with 50 μl solutions of antibody being analyzed or control antibodies and incubated for 1 hour at 4° C. […]

B1: 18D2: anti-STn monoclonal antibody from mouse #4436; IgG2b κ; heavy chain SEQ ID NO 1, light chains SEQ ID NO 2 and 3 (antibody, V domains shown)
VH: QVTLKESGPGILQPSQTLSLTCSFSGFSLSTSNMGIGWIRQPSGKGLEWLAHIWWHDDKYYNPSLKSRLTISKDISNNQVFLKITSVDTADTATYYCAQVPFYYGTSFDVWGTGTTVTVSS
VL 1: DIVMTQSPATLSVTPGDRVSLSCRASQSISDYLHWYQQKSHESPRLLIKYASQSISGIPSRFSGSGSGSDFTLSINSVEPEDVGVYYCQNGHSFPLTFGAGTKLELK
VL 2: QIVLTQSPAIMSASPGETVTMTCSASSSITYMHWYQQKPGTSPKRWIYDTSKLASGVPARFSGSGSGTSYSLTISSMEAEDAATYYCHQRSSYTFGGGTKLEIKR
- Glycan Array AcSTn [1]: 50%
- mean fluorescence intensity, AcSTn ([1]; glycan microarray): about 16,000
- mean fluorescence intensity, Neu5,9Ac2-α2,6-GalNAc [2]: about 4,500
- Glycan Array STn Specificity [3]: 100%
- Group ([3]; assigned from flow cytometry and glycan array analysis): 1
- EC50, flow cytometry binding to cell-associated STn ([4]; ST6GalNAc 1 transfected MDA-MB-231 cells (STn expressed on MDA cells)): 44.08 nM and 74.51 nM
- EC50 ([4]; no unit printed (same values in nM in b551, b556)): 65.8 nM
